Data on 1 substance can be found in patent US6025179.

The series concerns SnaBI restriction endonuclease (R.SnaBI) (Sphaerotilus natans). Put plainly: cleavage_in_vitro. The settings on record: crude extract, 37 C, 15 min and 1 h; about 8x10^6.

As for T7 phage DNA (SnaBI substrate), the activity (units/g wet cells) turned out to be 8e+06.
